Test results: article PMC4649906, “Unraveling the molecular architecture of a G protein-coupled receptor/β-arrestin/Erk module complex” (Scientific Reports, 2015)

B1: Raf1 interfering peptide (peptide)
peptide: KQRTVVNVRN
notes: stretch of Raf1 at the predicted interface with β-arrestin 1, within the RBD; Printed as H-KQRTVVNVRN-OH (free ends); Resuspended in H2O and used at 0.5 mM; source: synthetic peptide (Genecust laboratories)
B2: ERK interfering peptide (peptide)
peptide: ISPFEHQTY
notes: stretch of ERK2 at the predicted interface with β-arrestin 1; Printed as H-ISPFEHQTY-OH (free ends); Resuspended in H2O + 5% DMSO and used at 0.5 mM; source: synthetic peptide (Genecust laboratories)

Biological target: T1, human recombinant β-arrestin 1 (human, UniProt P49407 1-418)
T1 construct: β-arrestin 1, human, recombinant; Used as the prey (25 ng) in the GST pull-downs; source: bought: Gentaur (human recombinant)
T1 sequence (P49407 whole entry): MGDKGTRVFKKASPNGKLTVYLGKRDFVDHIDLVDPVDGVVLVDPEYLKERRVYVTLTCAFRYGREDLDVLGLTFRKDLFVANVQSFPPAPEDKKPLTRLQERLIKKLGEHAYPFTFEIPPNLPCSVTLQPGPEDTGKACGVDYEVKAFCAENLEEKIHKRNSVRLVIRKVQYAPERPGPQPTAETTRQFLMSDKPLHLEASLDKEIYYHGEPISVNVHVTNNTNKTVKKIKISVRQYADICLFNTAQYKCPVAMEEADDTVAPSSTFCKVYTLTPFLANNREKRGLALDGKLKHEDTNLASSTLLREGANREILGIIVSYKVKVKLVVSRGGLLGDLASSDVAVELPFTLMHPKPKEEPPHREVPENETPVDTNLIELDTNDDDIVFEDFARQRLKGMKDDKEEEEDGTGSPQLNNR
Test: pull-down; GST fusion protein immobilised on Glutathione Sepharose 4B beads; 25 ng human recombinant β-arrestin 1 as prey, with or without 0.5 mM peptide; 20 mM Hepes pH 7.9, 50 mM KCl, 2.5 mM MgCl2, 1 mM DTT, 10% glycerol, protease and phosphatase inhibitors; 1 hour at 4 °C; six washes; blot with anti-β-arrestin, quantified as the ratio of β-arrestin 1 over GST fusion
Settings: both partners purified

Binder | binding result
B1 | binds
B2 | binds
